# Fewer inactive variants are shown than the library holds.
# B1: TPR 5TU (parent)
# chain: GGAUCUUCUCGAUCUAACAAAAAAGACAAAUCUGCCACAAAGCUUGAGAGCAUCUUCGGAUGCAGAGGCGGCAGCCUUCGGUGGCGCGAUAGCGCCAACGUUCUCAACUAUGACACGCAAAACGCGUGCUCCGUUGAAUGGAGUUUAUCAUG
# Variants of: B1
# Assay: polymerase ribozyme fitness, log enrichment relative to wild type (log ratio); higher = more active; in vitro selection for triplet polymerase activity
# Outline: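 A single round of triplicate in vitro selection, including frozen incubation at −7 °C, was applied to PCR-built, transcribed mutant libraries of each subunit of a heterodimeric triplet polymerase ribozyme. Illumina sequencing of input and output libraries retained genotypes with ≥10 input reads and ≥1 read per output. Fitness is the base-2 logarithm of genotype enrichment divided by wild-type enrichment, from inverse-variance-weighted replicate averages.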
row,Variant,polymerase ribozyme fitness (log ratio)
1,C5U A20C A29G A115C U130G C132U U146C,≤ -4.2
2,C5U G84U U148G,≤ -4.2
3,C5G U31A C54U G67C A110U A121G,≤ -4.2
4,C5U A19G C57U G84U G117U A120U,-2.48
5,C5G C96U,-0.763
6,C5G G83A,-1.24
7,C5G U78C G84A G136U,-3.39
8,C5U A16U A26U U44A A52G G92C,≤ -4.2
9,U6A C8G A60C G62A C85A C103A,≤ -4.2
10,C5U U45G A119U,-0.808
11,U6G A12U A28C G65U U127G,≤ -4.2
12,C5U G84A C95A,0.351
13,U6A A24C G48A C93U U127G U144A,≤ -4.2
14,C5G C57U,-0.358
15,C5G U53A G94A C125A U139C A142C,≤ -4.2
16,C5G G94C U101G,-2.68
17,C5G C10U C76A C87U G92A,-2.35
18,U6A G25A A26C G50U A52G C76G C118G G136A,≤ -4.2
19,U6C U61A A73C C85G,≤ -4.2
20,C5G C18U A21C G86A C105A C123G,≤ -4.2
21,C5G C38A A39C A60U A73G G94U U104A A138U,≤ -4.2
22,U6A G58U U61A A66G U82C U139C G152A,≤ -4.2
23,C5U G50A C54A C76U G84U C95U C114U,≤ -4.2
24,U6C C10G,-3.97

row,Variant,polymerase ribozyme fitness (log ratio)
1,C5G G50A C87U C103G U111C C132U,≤ -4.2
2,U6G A12U A20U C51A C96A G100U C118A U148C,≤ -4.2
3,C5G C35U G50A U55A C57A A66C C87A U134C,≤ -4.2
4,U6C C8A U111G G143C,≤ -4.2
5,C5U A28U A40U C57U G83C A89G,≤ -4.2
6,C5G G83U A98U C105U,-1.03
7,U6G A12U A23G C38A G83U U90G C95A,≤ -4.2
8,C5G C38U A39C C95A G100C,≤ -4.2
9,C5U C27G C95U C96U G141C,≤ -4.2
10,U6A C93A,-2.58
11,U6A C69A G92U A98G U111C G152C,≤ -4.2
12,U6C C27U U145C,-3.08
13,U6A U61A C93A,≤ -4.2
14,C5G U6C G50A,-2.74
15,U6A A12C C87G A89U,-3.27
16,U6C C32A A49U G70U U82G C87U C105G,≤ -4.2
17,C5U G84A A142U,-0.976
18,C5G U7A U33G A91G C93U C118G A122G U144G,≤ -4.2
19,C5U G50C C87U C103G A121G C123U C125G,≤ -4.2
20,C5U A41U G68A G94A C99G U102G A115G C125G,≤ -4.2
21,C5U A37U C69U C95U,-1.02
22,U6A C38U U44A U82G C85U C95A U101G,≤ -4.2
23,C5G C14G C43G A73G G92U A97C,≤ -4.2
24,U6C A17U U33C C51G C57G G83U C95G A98G U127G,≤ -4.2

row,Variant,polymerase ribozyme fitness (log ratio)
1,U6C C10A A24U A110G,≤ -4.2
2,C5G G59U C99U A119G,-1.53
3,U6A A22C C75U G84A A97G C108G A113C C116A U135G,≤ -4.2
4,U6A C57G A64G C76U C87A,≤ -4.2
5,C5U C51A C54G G59C G84A C116G,-3.05
6,U6A A37G G80A C87A U102G G152A,≤ -4.2
7,U6A G42C A49C A52C C75U C85U A91U,≤ -4.2
8,C5G G46A G88A C95G U102G U135C A147C,≤ -4.2
9,U6C A73U G84A G100U G124A C125G U145G,≤ -4.2
10,U6A G11A U45A U53G C76U U90G C118U,≤ -4.2
11,U6C A47C G81C C87G C96U,≤ -4.2
12,C5U A24G G94A C123U G140U,≤ -4.2
13,C5G G92A C96A,-3.11
14,C5U A24C C79A G84A U104A A142G,≤ -4.2
15,C5U A40C C54G G92A A121U C132U U146A,≤ -4.2
16,C5U U13C C95U U146G,-1.13
17,U6A U56A U82G C103U,-1.06
18,C5G G48C G62C A97U G141U,≤ -4.2
19,C5G U6A C32G U77A C87G C114U,≤ -4.2
20,C5G C35U G80U C95U U104A,≤ -4.2
21,U6A A23U A30U G46A A47C,≤ -4.2
22,C5U A12U G84U,-1.92
23,U6A C38G G42C G86U C93U U127A,≤ -4.2
24,C5U U13C C85U U101G C105A U109G A110G,≤ -4.2

row,Variant,polymerase ribozyme fitness (log ratio)
1,C5U C51A G58A G81C,-1.81
2,U6G A16C A22U C51U C76U C85A C118U,-3.97
3,C5U G92A C114U,-3.86
4,C5G C132U U146G,-3.69
5,C5G C54U G84A U127G,≤ -4.2
6,C5G U82A C95U,-0.788
7,U6A A26C A98U G136U,-4.09
8,U6A G86C,-2.98
9,U6A C57G C105U,0.464
10,C5G C96A G117A,-0.406
11,C5U U56A C75U G83C,-0.766
12,C5G C8G C85A G126U,≤ -4.2
13,C5U U15G U33C,-4.17
14,C5G A89G C96U U135G,≤ -4.2
15,C5U C54G,-0.591
16,C5G C8U A28C U33A U44A C85U U90A U139C,≤ -4.2
17,U6A G25U,-1.78
18,C5G C14G C96A,-2.31
19,C5G U6G U7G C14G A28C A30C G50C C51G A89G C93G G94U C105U C118A G133A,≤ -4.2
20,U6A C8A A19U A20U C72U U77A U101A,≤ -4.2
21,U6C U61A C85U A97C A120G,-3.12
22,C5U A52U G67U C93U C96U A115C,≤ -4.2
23,C5G U82G G86U A121G,-2.13
24,U6A A16U A107C C131G,≤ -4.2

row,Variant,polymerase ribozyme fitness (log ratio)
1,U6A A52C G81U C85G,-3.49
2,U6C A89G C96U U135C G140U,≤ -4.2
3,C5U C75A,-4.03
4,U6A U55G,-0.118
5,U6A U55A,-1.4
6,U6C A20C A28C A37U G42U G71A C85U C99G A106G C131G,≤ -4.2
7,C5U A23C A40C A49U G70C G94A,≤ -4.2
8,C5G U45G U55G G86U C87A A91U,≤ -4.2
9,C5U C54U U82A C95G A150U,-1.62
10,C5U U7A G88U U148C A150C,≤ -4.2
11,C5G C93U,-2.31
12,C5G C93G,-2.51
13,C5G U53G C57A G80C A91U U144C,≤ -4.2
14,U6A U7C G83A C125A,-3.64
15,C5U U15G A39C A66U C95U,-4.2
16,U6G A16U G58A G141U,-1.34
17,C5U A64C G84A A122G G124U U144G U151A,≤ -4.2
18,U6A C35A C63U C69U C76A G83C,≤ -4.2
19,C5G C32U C96U A122G,-3.38
20,C5G U53G C54A C96U U135A,-3.79
21,C5U A21G G59C C93G,-1.3
22,C5G G50C,-3.2
23,C5U A28C A64U G84A,≤ -4.2
24,U6C U9A A30U A49U C85U U146C,≤ -4.2

row,Variant,polymerase ribozyme fitness (log ratio)
1,U6C G83C A91C U145C,≤ -4.2
2,C5G C87A,≤ -4.2
3,C5G C87U,-0.787
4,C5U A12U C18G G70C G80A C93G C95U A98G U144G,≤ -4.2
5,C5G C18A C87G G143A,≤ -4.2
6,C5G C35U A52C G59C A106G C108A C114U A119U A122U G133U,≤ -4.2
7,U6C G11C A16C G58C A142C,-3.7
8,U6A G80C G94A,≤ -4.2
9,U6A U7G C36U C85A U144A,≤ -4.2
10,U6A A12U,0.206
11,C5G G11A A73G C76U,-2.17
12,C5U C51A,-0.999
13,C5G U55A,-0.729
14,U6A G68A G83C U90G C118U,≤ -4.2
15,U6C C27U G50C A52G G58A C87U,≤ -4.2
16,C5G G34A U134A,-3.83
17,C5U A22C C85A,-9.25e-05
18,U6A A12G A17G A40G C96A A137G,-3.74
19,U6A G11U A23C G25A C36A G50C C125U,≤ -4.2
20,C5U A52C C76U C93A C116U C123G,-3.61
21,U6A U146G A150G G152A,-1.38
22,U6C C8U U15G,-2.42
23,U6C A37C C93U,-3.12
24,C5G U7G A12C A22U U90C U144A,≤ -4.2

row,Variant,polymerase ribozyme fitness (log ratio)
1,U6G A19G A30U A119G,≤ -4.2
2,U6A C27A C85G,≤ -4.2
3,U6A U7G U31C G34A A41U,-3.68
4,U6A A30C G58C A60U C76G A106U C149G,≤ -4.2
5,U6C A21U U101A U104A U148A,≤ -4.2
6,U6A G11A A64C C72U C87U A120G C149A,≤ -4.2
7,U6C C85U A121U U135C,-3.27
8,C5U U55A,0.322
9,U6A C54A C95G A98U,-2.26
10,U6C C87A G88U C96A A120U C123U,≤ -4.2
11,U6C C54G C93A C116G G141A,-4.17
12,C5G C103A G117A,-2.88
13,U6C U55G C132A A138G,≤ -4.2
14,C5G C38U G50A,-1.8
15,C5G C18A A23G C54G G67A C93G C99G,≤ -4.2
16,U6A G81C G94U C125U,-2.57
17,U6C U13G C43G C76U U90A U151G,≤ -4.2
18,C5G U15G A52G,-1.06
19,U6C A16G A24U C96A C118U,-3.92
20,U6A U9G C35G A60G C69G G88C C96A,≤ -4.2
21,U6C C38A G59U C69A,-2.2
22,C5U A16C C51U,-1.73
23,C5G U56A G94C A120G,-1.95

# Source: the RNAGym collection of RNA variant scans (doi:10.1073/pnas.2313332121)
